Experimental data: US20240043515A1 (Chugai, published 2024)
Substitutions are numbered along the chain they refer to. Names may count otherwise. Each block holds one binder with its values, some of them ahead of it.

Columns and labels:
[1] = biological target: hFcγRIIIaV on Jurkat effector cells (human, UniProt P08637 17-254); assay: cell-based or functional assay
[2] = biological target: T1, hFcγRIIaH on Jurkat effector cells (human, UniProt P12318 34-317); assay: cell-based or functional assay
T1 sequence (looked up): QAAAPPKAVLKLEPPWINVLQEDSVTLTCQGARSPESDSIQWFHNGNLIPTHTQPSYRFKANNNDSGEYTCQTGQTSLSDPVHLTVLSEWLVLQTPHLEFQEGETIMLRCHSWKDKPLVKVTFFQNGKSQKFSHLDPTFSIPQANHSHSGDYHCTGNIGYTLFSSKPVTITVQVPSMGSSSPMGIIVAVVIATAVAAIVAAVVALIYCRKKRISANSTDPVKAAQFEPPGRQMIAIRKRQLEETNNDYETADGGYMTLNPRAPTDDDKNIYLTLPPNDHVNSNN

[3] = biological target: T2, human FcγRIa extracellular domain (human, UniProt P12314 16-292); assay: SPR; KD of G1d divided by KD of this antibody
T2 construct: extracellular domain; also called hFcγR Ia
T2 sequence (P12314 16-292): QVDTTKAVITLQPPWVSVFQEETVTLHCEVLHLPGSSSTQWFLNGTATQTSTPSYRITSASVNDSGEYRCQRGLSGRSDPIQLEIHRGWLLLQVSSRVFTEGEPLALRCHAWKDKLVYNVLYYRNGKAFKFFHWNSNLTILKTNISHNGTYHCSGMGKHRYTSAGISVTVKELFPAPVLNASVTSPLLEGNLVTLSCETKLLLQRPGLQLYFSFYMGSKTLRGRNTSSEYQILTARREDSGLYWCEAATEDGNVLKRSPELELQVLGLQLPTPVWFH
Procedure: (§1) The extracellular domains of FcγRs were produced by the method described in WO2014104165. The interaction between the produced antibodies and human FcγRs was analyzed using Biacore 8K+ by the method below. For the running buffer, 50 mM Na-Phosphate, 150 mM NaCl, and 0.05% Tween20 (pH 7.4) was used, and measurement was performed at 25° C. The sensor chip used was a Series S SA chip (GE Healthcare) onto which CaptureSelect Human Fab-kappa Kinetics Biotin Conjugate (Thermo Fisher Scientific) was immobilized. An antibody of interest was captured onto this chip, and each FcγR diluted with the running buffer was allowed to interact with it. The chip was regenerated using 10 mM Glycine-HCl (pH 1.5), and repeatedly used to capture antibodies and perform measurement. The dissociation constants KD (mol/L) of each antibody for FcγRs were calculated using Biacore Insight Evaluation Software, with a steady state affinity model for the dissociation constant for FcγRIIb and a 1:1 Langmuir binding model for the dissociation constants for the other FcγRs (Table 2).

[4] = biological target: T3, human FcγRIIa H extracellular domain (human, UniProt P12318 34-217); assay: SPR; KD of G1d divided by KD of this antibody
T3 construct: extracellular domain; also called hFcγR IIa H; FcγRIIa allotype H131
T3 sequence (looked up): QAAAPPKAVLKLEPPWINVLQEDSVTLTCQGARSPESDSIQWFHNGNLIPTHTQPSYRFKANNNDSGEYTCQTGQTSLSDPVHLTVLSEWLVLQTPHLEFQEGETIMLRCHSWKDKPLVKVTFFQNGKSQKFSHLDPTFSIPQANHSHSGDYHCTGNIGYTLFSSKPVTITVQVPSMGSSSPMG
Procedure: as §1

[5] = biological target: T4, human FcγRIIa R extracellular domain (human, UniProt P12318 34-217); assay: SPR; KD of G1d divided by KD of this antibody
T4 construct: extracellular domain; also called hFcγR IIa R; FcγRIIa allotype R131
T4 sequence (looked up): T3 sequence (looked up) with H134R
Procedure: as §1

[6] = biological target: T5, human FcγRIIb extracellular domain (human, UniProt P31994 43-217); assay: SPR; KD of G1d divided by KD of this antibody
T5 construct: extracellular domain; also called hFcγR IIb
T5 sequence (looked up): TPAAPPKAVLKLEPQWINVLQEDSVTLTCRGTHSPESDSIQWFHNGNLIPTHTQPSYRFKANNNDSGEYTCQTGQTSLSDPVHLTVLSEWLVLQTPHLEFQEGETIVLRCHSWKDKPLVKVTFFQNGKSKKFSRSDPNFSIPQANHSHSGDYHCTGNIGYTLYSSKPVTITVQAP
Procedure: as §1

[7] = biological target: T6, human FcγRIIIa F extracellular domain (human, UniProt P08637 17-208); assay: SPR; KD of G1d divided by KD of this antibody
T6 construct: extracellular domain; also called hFcγR IIIa F; FcγRIIIa allotype F158
T6 sequence (P08637 17-208): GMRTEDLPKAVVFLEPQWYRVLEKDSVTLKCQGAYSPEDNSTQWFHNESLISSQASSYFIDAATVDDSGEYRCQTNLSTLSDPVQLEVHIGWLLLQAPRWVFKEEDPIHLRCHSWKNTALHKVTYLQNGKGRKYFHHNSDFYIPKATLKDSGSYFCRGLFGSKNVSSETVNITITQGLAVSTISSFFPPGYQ
Procedure: as §1

[8] = biological target: T7, human FcγRIIIa V extracellular domain (human, UniProt P08637 17-208); assay: SPR; KD of G1d divided by KD of this antibody
T7 construct: extracellular domain; also called hFcγR IIIa V; FcγRIIIa allotype V158
T7 sequence (P08637 17-208 F176V): as the sequence (P08637 17-208) above, with F160V counted along it
Procedure: as §1

[9] = biological target: T3, human FcγRIIa H extracellular domain; assay: SPR; KD for hFcγRIIb divided by KD for this FcγR
Procedure: as §1

[10] = biological target: T4, human FcγRIIa R extracellular domain; assay: SPR; KD for hFcγRIIb divided by KD for this FcγR
Procedure: as §1

[11] = biological target: T6, human FcγRIIIa F extracellular domain; assay: SPR; KD for hFcγRIIb divided by KD for this FcγR
Procedure: as §1

[12] = biological target: T7, human FcγRIIIa V extracellular domain; assay: SPR; KD for hFcγRIIb divided by KD for this FcγR
Procedure: as §1

[13] = biological target: T7, human FcγRIIIa V extracellular domain; assay: SPR (Biacore 8K+), antibody captured, FcγR as analyte, 25 C, 1:1 Langmuir model
Procedure: as §1

[14] = biological target: T5, human FcγRIIb extracellular domain; assay: SPR (Biacore 8K+), antibody captured, FcγR as analyte, 25 C, steady state affinity model
Procedure: as §1

Sequence of hFcγRIIIaV on Jurkat effector cells (P08637 17-254, form in doubt): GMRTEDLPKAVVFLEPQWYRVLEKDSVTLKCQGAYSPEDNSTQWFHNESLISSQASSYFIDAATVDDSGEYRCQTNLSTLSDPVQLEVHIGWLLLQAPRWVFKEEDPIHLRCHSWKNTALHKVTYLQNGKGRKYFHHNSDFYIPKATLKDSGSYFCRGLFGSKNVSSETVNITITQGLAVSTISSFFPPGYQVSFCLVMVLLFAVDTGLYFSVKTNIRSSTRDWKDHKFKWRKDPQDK

EC50 of reporter gene induction (ADCC Reporter Bioassay, Hepa1-6/hEREG target cells) [1]: 1.5 ng/mL
EC50 of reporter gene induction (ADCP Reporter Bioassay, Hepa1-6/hEREG target cells) [2]: 19.2 ng/mL
Relative value to KD between G1d and hFcgRs [3]: 1.2 times
Relative value to KD between G1d and hFcgRs [4]: 118 times
Relative value to KD between G1d and hFcgRs [5]: 24.1 times
Relative value to KD between G1d and hFcgRs [6]: 3.4 times
Relative value to KD between G1d and hFcgRs [7]: 987 times
Relative value to KD between G1d and hFcgRs [8]: 322 times
A/I ratio (KD for FcγRIIb divided by KD for each FcγR) [9]: 307 ratio
A/I ratio (KD for FcγRIIb divided by KD for each FcγR) [10]: 42.4 ratio
A/I ratio (KD for FcγRIIb divided by KD for each FcγR) [11]: 976 ratio
A/I ratio (KD for FcγRIIb divided by KD for each FcγR) [12]: 2630 ratio
B1: EGL-ART6 (H240-Kn462/L73-k0//H240-H1445/L73-k0) (antibody, human IgG1, kappa)
heavy 1: QDQLVQSGAEVKKPGASVKVSCKASGFNIKDTYIQWVRQAPGQGLEWMGRIDPLRKQTKYREKFEGRVTITADTSTNTAYMELSSLRSEDTAVYYCVRSGREFDYWGQGTLVTVSSASTKGPSVFPLAPSSKSTSGGTAALGCLVKDYFPEPVTVSWNSGALTSGVHTFPAVLQSSGLYSLSSVVTVPSSSLGTQTYICNVNHKPSNTKVDKKVEPKSCDKTHTCPPCPAPEFQWGPMVFLFPPKPKDVLMISRTPEVTCVVVDVSDEEPEVKFNWYVDGVEVHNAKTKPREEQYNATYRVVSVLPVLHQDWLNGKEYKCKVSNDALPAPIEKTISKAKGQPREPQVCTLPPSRDELTKNQVSLWCLVKGFYPSDIAVEWESNGQPENNYKTTPPVLDSDGSFFLYSKLTVDKSRWQQGNVFSCSVMHEALHNHYTQKSLSLSP
heavy 2: QDQLVQSGAEVKKPGASVKVSCKASGFNIKDTYIQWVRQAPGQGLEWMGRIDPLRKQTKYREKFEGRVTITADTSTNTAYMELSSLRSEDTAVYYCVRSGREFDYWGQGTLVTVSSASTKGPSVFPLAPSSKSTSGGTAALGCLVKDYFPEPVTVSWNSGALTSGVHTFPAVLQSSGLYSLSSVVTVPSSSLGTQTYICNVNHKPSNTKVDKKVEPKSCDKTHTCPPCPAPELLAGPSVFLFPPKPKDVLMISRTPEVTCVVVDVSHEEPEVKFNWYVDGVEVHNAKTKPREEQYNATYRVVSVLPVLHQDWLNGKEYKCKVSNDALPKPDEETISKAKGQPREPQVYTLPPSRCELTKNQVSLSCAVKGFYPSDIAVEWESNGQPENNYKTTPPVLDSDGSFFLVSKLTVDKSRWQQGNVFSCSVMHEALHNHYTQKSLSLSP
light: DIQMTQSPSSLSASVGDRVTITCRASQDIHKYIAWYQQKPGQAPRLLIQYTSTLQPGVPSRFSGSGSGTDYTFTISSLQPEDIATYYCLQYEQLRTFGGGTKVEIKRTVAAPSVFIFPPSDEQLKSGTASVVCLLNNFYPREAKVQWKVDNALQSGNSQESVTEQDSKDSTYSLSSTLTLSKADYEKHKVYACEVTHQGLSSPVTKSFNRGEC
notes: H1445: G236A/T250V/D270E/S298A/T307P/K326D/A330K/I332D/K334E + D356C/T366S/L368A/Y407V

Relative value to KD between G1d and hFcgRs [4]: 1.1 times
Relative value to KD between G1d and hFcgRs [6]: 1.8 times
Kd [13]: 19 nM
Kd [14]: 5650 nM
B2: EGL-afucosyl (H240-G1d/L73-k_glycomab) (antibody)
heavy: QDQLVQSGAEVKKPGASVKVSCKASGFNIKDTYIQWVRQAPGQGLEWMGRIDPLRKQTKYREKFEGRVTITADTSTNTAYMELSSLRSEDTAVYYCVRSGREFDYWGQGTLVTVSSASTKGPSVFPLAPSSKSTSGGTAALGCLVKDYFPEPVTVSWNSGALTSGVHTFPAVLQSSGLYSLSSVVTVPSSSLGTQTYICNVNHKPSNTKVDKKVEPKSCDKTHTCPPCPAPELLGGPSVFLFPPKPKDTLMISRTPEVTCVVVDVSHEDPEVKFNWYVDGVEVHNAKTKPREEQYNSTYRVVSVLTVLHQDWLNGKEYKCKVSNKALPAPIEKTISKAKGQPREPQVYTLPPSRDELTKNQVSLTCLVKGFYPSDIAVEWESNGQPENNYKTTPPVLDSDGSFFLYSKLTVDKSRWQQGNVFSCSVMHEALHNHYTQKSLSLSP
light: B1 light
modifications: afucosylated (fucose-deficient sugar chain) ; Afucosylated (fucose-deficient) N-glycan at Asn297 (EU) of each heavy chain; the letters cannot carry this.
notes: Same heavy chain as EGL-G1d, produced as a fucose-deficient antibody; also called afucosylated antibody

EC50 of reporter gene induction (ADCC Reporter Bioassay, Hepa1-6/hEREG target cells) [1]: 1.07 ng/mL
EC50 of reporter gene induction (ADCP Reporter Bioassay, Hepa1-6/hEREG target cells) [2]: 17.1 ng/mL
Relative value to KD between G1d and hFcgRs [3]: 3.2 times
Relative value to KD between G1d and hFcgRs [4]: 15 times
Relative value to KD between G1d and hFcgRs [5]: 13.2 times
Relative value to KD between G1d and hFcgRs [6]: 2.8 times
Relative value to KD between G1d and hFcgRs [7]: 1970 times
Relative value to KD between G1d and hFcgRs [8]: 695 times
A/I ratio (KD for FcγRIIb divided by KD for each FcγR) [9]: 47.2 ratio
A/I ratio (KD for FcγRIIb divided by KD for each FcγR) [10]: 28.1 ratio
A/I ratio (KD for FcγRIIb divided by KD for each FcγR) [11]: 2350 ratio
A/I ratio (KD for FcγRIIb divided by KD for each FcγR) [12]: 6850 ratio
Kd [13]: 0.516 nM
B3: EGL-ART8 (H240-Kn461/L73-k0//H240-H1443/L73-k0) (antibody, human IgG1, kappa)
heavy 1: B1 heavy 1 with I331E
heavy 2: B1 heavy 2 with K329A, D331E
light: B1 light
notes: Kn461: L234F/L235Q/G236W/S239M/T250V/H268D/D270E/S298A/T307P/K326D/I332E + Y349C/T366W; H1443: G236A/T250V/D270E/S298A/T307P/K326D/I332E/K334E + D356C/T366S/L368A/Y407V
